In publication doi:10.1101/340133 one finds residence ratio and dwell time data, which are given here for four molecules.

The target of assay [1] is dynamic microtubules polymerized from αβ-tubulin on GMPCPP seeds (porcine) (UniProt P02554). Put plainly: TIRF microscopy of dynamic microtubules.
For assay [2] the target is unchanged. Put plainly: single molecule TIRF microscopy of dynamic microtubules.

UniProt P02554, sequence (P02554 whole entry, looked up): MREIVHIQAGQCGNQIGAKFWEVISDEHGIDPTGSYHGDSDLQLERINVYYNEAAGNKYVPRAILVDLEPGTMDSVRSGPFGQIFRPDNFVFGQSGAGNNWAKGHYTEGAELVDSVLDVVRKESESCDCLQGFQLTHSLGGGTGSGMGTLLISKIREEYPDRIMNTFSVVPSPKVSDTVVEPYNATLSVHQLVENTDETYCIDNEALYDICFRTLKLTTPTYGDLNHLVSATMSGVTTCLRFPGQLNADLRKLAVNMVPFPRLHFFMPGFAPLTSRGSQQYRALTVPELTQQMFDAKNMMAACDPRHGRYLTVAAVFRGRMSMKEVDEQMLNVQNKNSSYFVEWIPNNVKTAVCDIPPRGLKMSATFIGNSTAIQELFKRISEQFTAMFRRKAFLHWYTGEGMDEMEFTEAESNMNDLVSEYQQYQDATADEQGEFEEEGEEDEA

B1: wt-Alp14 (residues 1-690) with C-terminal mNeonGreen (domain or fragment)
chain: MSQDQEEDYSKLPLESRIVHKVWKVRLSAYEECSKSFSLSADGSDNCFELWNNQSELWKSVLTDSNVAAQEAGTAAFVAYCRFSDPSHLLKAREISVLSISEKCLTSPRAGTRENALEALMLLVEADSAAPVIESIIPSLSARSPKVIASNVAAIASLVEQFGAKVIPSKMIIPHISNLFGHADKNVRKEASRLTVNIYRWTGDPLKDLLFKDLRPVQTKELESLFAELPTEPPKQTRFLKSQQPTSEPNVETQVEEQPALENEESEPEPSDDQFDLVEEVDVLPNVDPNLETLMASSKWKDRKEALDKLLPVLSQPKIKDNDFFNLVAILTKSVSKDANIMVVINAAHCIQAMAKGLRSNFSKYASTSINALLERSKEKKANVIESLSSAMDAVLATSSLDDLAELIASFAGNKNPQIKSSCFSLFSRSFSNMTSLPSKFTVDTCAKACVPGVSDTFEPVRSAAAEALGVLMKLVGERAINQYLSPLDDIRKSKIRSFYETATVKAKAPTKKSKVKPSKQEESKVVVPSNAKAVKKSVVPSSPVVPSPRKATNKSLSMDVSKGNAFENGPLLPRPTTRPVSRGLSRGTSSSLQQKVKASTPLNSGALNETVQNLKNMELDDPAPQPAKHSRVDRYEHPKVLEDNDSTISSLESLKRENEELREQLKVEHEENISMQKQLSELKGELNTL
Turning to B1, the residence ratio at MT plus-ends (average) in assay [1] worked out at 89.4%.

B2: C-terminally SNAPf-tagged wt-Alp14 (residues 1-690) (domain or fragment)
chain: MSQDQEEDYSKLPLESRIVHKVWKVRLSAYEECSKSFSLSADGSDNCFELWNNQSELWKSVLTDSNVAAQEAGTAAFVAYCRFSDPSHLLKAREISVLSISEKCLTSPRAGTRENALEALMLLVEADSAAPVIESIIPSLSARSPKVIASNVAAIASLVEQFGAKVIPSKMIIPHISNLFGHADKNVRKEASRLTVNIYRWTGDPLKDLLFKDLRPVQTKELESLFAELPTEPPKQTRFLKSQQPTSEPNVETQVEEQPALENEESEPEPSDDQFDLVEEVDVLPNVDPNLETLMASSKWKDRKEALDKLLPVLSQPKIKDNDFFNLVAILTKSVSKDANIMVVINAAHCIQAMAKGLRSNFSKYASTSINALLERSKEKKANVIESLSSAMDAVLATSSLDDLAELIASFAGNKNPQIKSSCFSLFSRSFSNMTSLPSKFTVDTCAKACVPGVSDTFEPVRSAAAEALGVLMKLVGERAINQYLSPLDDIRKSKIRSFYETATVKAKAPTKKSKVKPSKQEESKVVVPSNAKAVKKSVVPSSPVVPSPRKATNKSLSMDVSKGNAFENGPLLPRPTTRPVSRGLSRGTSSSLQQKVKASTPLNSGALNETVQNLKNMELDDPAPQPAKHSRVDRYEHPKVLEDNDSTISSLESLKRENEELREQLKVEHEENISMQKQLSELKGELNTL
modifications: SNAP-Surface Atto 488 covalently attached to the SNAPf tag (5-10 nM labeled diluted into 190-195 nM non-labeled)
Consider B2, for which the dwell time at MT plus-ends in assay [2] is 129 s.

B3: SNAPf-tagged TOG1M Alp14 (residues 1-690) (domain or fragment)
chain: MSQDQEEDYSKLPLESRIVHKVAKVRLSAYEECSKSFSLSADGSDNCFELWNNQSELWKSVLTDSNVAAQEAGTAAFVAYCRFSDPSHLLKAREISVLSISEKCLTSPAAGTRENALEALMLLVEADSAAPVIESIIPSLSARSPKVIASNVAAIASLVEQFGAKVIPSKMIIPHISNLFGHADKNVRKEASRLTVNIYAWTGDPLKDLLFKDLRPVQTKELESLFAELPTEPPKQTRFLKSQQPTSEPNVETQVEEQPALENEESEPEPSDDQFDLVEEVDVLPNVDPNLETLMASSKWKDRKEALDKLLPVLSQPKIKDNDFFNLVAILTKSVSKDANIMVVINAAHCIQAMAKGLRSNFSKYASTSINALLERSKEKKANVIESLSSAMDAVLATSSLDDLAELIASFAGNKNPQIKSSCFSLFSRSFSNMTSLPSKFTVDTCAKACVPGVSDTFEPVRSAAAEALGVLMKLVGERAINQYLSPLDDIRKSKIRSFYETATVKAKAPTKKSKVKPSKQEESKVVVPSNAKAVKKSVVPSSPVVPSPRKATNKSLSMDVSKGNAFENGPLLPRPTTRPVSRGLSRGTSSSLQQKVKASTPLNSGALNETVQNLKNMELDDPAPQPAKHSRVDRYEHPKVLEDNDSTISSLESLKRENEELREQLKVEHEENISMQKQLSELKGELNTL
modifications: SNAP-Surface Atto 488 covalently attached to the SNAPf tag
For the molecule B3, in assay [2], the dwell time at MT plus-ends worked out at 57.4 s.

B4: TOG1 inactivated Alp14 (TOG1M), residues 1-690, with C-terminal mNeonGreen (domain or fragment)
chain: MSQDQEEDYSKLPLESRIVHKVAKVRLSAYEECSKSFSLSADGSDNCFELWNNQSELWKSVLTDSNVAAQEAGTAAFVAYCRFSDPSHLLKAREISVLSISEKCLTSPAAGTRENALEALMLLVEADSAAPVIESIIPSLSARSPKVIASNVAAIASLVEQFGAKVIPSKMIIPHISNLFGHADKNVRKEASRLTVNIYAWTGDPLKDLLFKDLRPVQTKELESLFAELPTEPPKQTRFLKSQQPTSEPNVETQVEEQPALENEESEPEPSDDQFDLVEEVDVLPNVDPNLETLMASSKWKDRKEALDKLLPVLSQPKIKDNDFFNLVAILTKSVSKDANIMVVINAAHCIQAMAKGLRSNFSKYASTSINALLERSKEKKANVIESLSSAMDAVLATSSLDDLAELIASFAGNKNPQIKSSCFSLFSRSFSNMTSLPSKFTVDTCAKACVPGVSDTFEPVRSAAAEALGVLMKLVGERAINQYLSPLDDIRKSKIRSFYETATVKAKAPTKKSKVKPSKQEESKVVVPSNAKAVKKSVVPSSPVVPSPRKATNKSLSMDVSKGNAFENGPLLPRPTTRPVSRGLSRGTSSSLQQKVKASTPLNSGALNETVQNLKNMELDDPAPQPAKHSRVDRYEHPKVLEDNDSTISSLESLKRENEELREQLKVEHEENISMQKQLSELKGELNTL
For the molecule B4, in assay [1], the residence ratio at MT plus-ends (average) is 72.4%.
